According to patent publication US10017546B2 (KOREA ADVANCED INSTITUTE OF SCIENCE AND TECHNOLOGY, priority 2015, dated 2018):
Numbering of substitutions follows the chain as printed. In names and notes the source's numbering stands. Where two headings read alike, the source gives them in different places.

Legend:
biotin-DNA = experiment: Gel-based off-rate measurement against biotin-DNA-fluorescein; type: binding; settings: for percentage of dissociated biotin conjugate after 10 h incubation with excess biotin: 23° C.
biotin-AP = experiment: Gel-based off-rate measurement against biotin-AP peptide; type: binding; settings: 37° C., excess biotin
biotin-GFP [1] = molecular target: T1, biotin-GFP (Aequorea victoria, UniProt P42212, A206V/E111V/F223Y/F64L/F99S/I128T/I167V/I171V/K158E/K166T/K26E/L221H/M153T/N105K/N149D/N164E/Q80R/S205T/S30R/S65T/T225N/V163A/Y145F/Y39I); settings: for percentage of dissociated biotin conjugate after 10 h incubation with excess biotin / Dissociation rate: Biotin-GFP; for percentage of dissociated biotin conjugate after 10 h incubation with excess biotin: 23° C.; for Dissociation rate: excess biotin; for dissociation of biotin-GFP from mRA mutants (in words): mutants at E115, Q46, S23, biotin addition, 45° C. for 30 min
Experimental: After incubation at the indicated temperature (23° C., 37° C., or 45° C.) for varying time points (between 0 to 10 h), protein-conjugate mixtures were loaded onto a 15% native polyacrylamide gel. […] Data as ln(fraction bound) versus time and fitting the data to a straight line by linear regression.

biotin-protein G = experiment: Gel-based off-rate measurement against biotin-protein G; type: binding; settings: 37° C., excess biotin
biotin-GFP [2] = molecular target: T1, biotin-GFP; settings: 15% native-PAGE
Excerpt: To monomerize rhizavidin, the present inventors introduced various numbers (one, six, and ten) of charged and hydrophilic amino acids, which have long side chains, at the dimeric interface (FIG. 1(a) and FIG. 4).

[3] = Stability / aggregation of monomerized proteins in buffered solutions; type: physicochemical; settings: up to 1 mg/ml where stated
[4] = immobilized biotin or biotin-GFP, avidin proteins 5 μM
Experimental: Surface Plasmon Resonance (SPR) Analysis
SPR tests were performed in a Biacore 3000 instrument using dextran CM5 gold chips (GE Healthcare) and a PBS buffer as a running solution.

HeLa cells = experiment: Clustering and internalization of biotinylated cell-surface proteins; type: cell-based; settings: Cy5-labeled avidin proteins, 37° C.
Experimental: Following biotinylation, the cells were washed twice with cold PBS-CM, treated with 100 mM glycine in PBS-CM for blocking, and washed again twice with cold PBS. […] Unbound avidin proteins were removed, and media was replaced with pre-warmed DMEM (37° C.). Cells were incubated for 5, 10, or 30 m at 37° C. Cells were washed, and fixed with 4% formaldehyde in PBS for confocal imaging (ZEISS, LSM510 META). To visualize endosome or lysozome-specific proteins, cells were fixed, permeabilized, and incubated with a primary antibody: anti-Rab11 (a GTPase of recycling endosome, Abcham) or anti-LAM P1 (Lysosomal-associated membrane protein 1, Abcham). Afterward, cells were incubated with a fluorescent secondary antibody (goat anti-rabbit 555, Abcham), and images were acquired with a confocal microscopy (ZEISS, LSM510 META).

B1: Rhizavidin (RA): natural dimeric avidin protein from Rhizobium etli; core rhizavidin SEQ ID NO: 1 (protein)
chain: FDASNFKDFSSIASASSSWQNQSGSTMIIQVDSFGNVSGQYVNRAQGTGCQNSPYPLTGRVNGTFIAFSVGWNNSTENCNSATGWTGYAQVNGNNTEIVTSWNLAYEGGSGPAIEQGQDTFQYVPTTE
modifications: amino acid sequence of truncated Rhizavidin
percentage of dissociated biotin conjugate after 10 h incubation with excess biotin (biotin-DNA): 48 ± 6.1% for 10 h*
Dissociation rate (biotin-AP): 4.9 ± 0.7 × 10^−5 s^−1
percentage of dissociated biotin conjugate after 10 h incubation with excess biotin (biotin-GFP [1]): 18 ± 3.0% for 10 h*
Dissociation rate (biotin-GFP [1]; 37° C.): 5.0 ± 0.1 × 10^−5 s^−1
Dissociation rate (biotin-GFP [1]; 45° C.): 6.0 ± 0.6 × 10^−5 s^−1
Dissociation rate (biotin-protein G): 3.2 ± 0.8 × 10^−5 s^−1
complexes formed with biotin-GFP (biotin-GFP [2]): two separated complexes

B2: mRAWW: mRA with two tryptophan mutations (E115W and S23W) (protein)
chain: B1 chain with S23W, A67D, G71K, A82N, G84Q, S101R, A105K, E115W
stability / aggregation in buffered solutions [3]: highly prone to aggregation
dissociation of biotin-GFP from mRA mutants (in words) (biotin-GFP [1]): the least dissociation of biotin-GFP

B3: Monodin (MA): monomeric avidin-like protein of SEQ ID NO: 3; mRA further carrying S23H, Q46E and E115W (protein)
chain: B1 chain with S23H, Q46E, A67D, G71K, A82N, G84Q, S101R, A105K, E115W
modifications: amino acid sequence of MA
notes: mRA further carrying S23H, Q46E and E115W
percentage of dissociated biotin conjugate after 10 h incubation with excess biotin (biotin-DNA): 22 ± 6.0% for 10 h*
percentage of dissociated biotin conjugate after 10 h incubation with excess biotin (biotin-DNA; listed as monodin): 22%
Dissociation rate (biotin-DNA; 37° C., excess biotin): 2.7±0.3×10^−5 s^−1
Dissociation rate (biotin-AP): 5.1 ± 0.7 × 10^−5 s^−1
percentage of dissociated biotin conjugate after 10 h incubation with excess biotin (biotin-GFP [1]): 6.7 ± 1.1% for 10 h*
percentage of dissociated biotin conjugate after 10 h incubation with excess biotin (biotin-GFP [1]; listed as MA): less than 7%
Dissociation rate (biotin-GFP [1]; 37° C.): 2.3±0.1×10^−5 s^−1
Dissociation rate (biotin-GFP [1]; 45° C.): 6.4±0.2×10^−5 s^−1
dissociation of biotin-GFP from mRA mutants (in words) (biotin-GFP [1]): highly slowed off-rate
Dissociation rate (biotin-protein G): 4.6 ± 1.5 × 10^−5 s^−1
dissociation from surface-bound biotin conjugates by SPR [4]: not observed
incubation time after which avidin protein was internalized (HeLa cells): 30 min

B4: mRA: monomeric rhizavidin with six interfacial mutations (SEQ ID NO: 2) (protein)
chain: B1 chain with A67D, G71K, A82N, G84Q, S101R, A105K
modifications: amino acid sequence of mRA
stability / aggregation in buffered solutions [3]: stable without any aggregation
biotin-GFP dissociated after biotin addition (biotin-GFP [1]; excess free biotin, 37° C. for 30 min, native-PAGE): Over 40%
